Experimental data published in US20190065668.

B1: recombinant P. falciparum plasmepsin V (residues N80-R528) (protein)
chain: NASSDLYKYKLYGDIDEYAYYFLDIDIGKPSQRISLILDTGSSSLSFPCNGCKDCGIHMEKPYNLNYSKTSSILYCNKSNCPYGLKCVGNKCEYLQSYCEGSQIYGFYFSDIVTLPSYNNKNKISFEKLMGCHMHEESLFLHQQATGVLGFSLTKPNGVPTFVDLLFKHTPSLKPIYSICVSEHGGELIIGGYEPDYFLSNQKEKQKMDKSDNNSSNKGNVSIKLKNNDKNDDEENNSKDVIVSNNVEDIVWQAITRKYYYYIKIYGLDLYGTNIMDKKELDMLVDSGSTFTHIPENIYNQINYYLDILCIHDMTNIYEINKRLKLTNESLNKPLVYFEDFKTALKNIIQNENLCIKIVDGVQCWKSLENLPNLYITLSNNYKMIWKPSSYLYKKESFWCKGLEKQVNNKPILGLTFFKNKQVIFDLQQNQIAFIESKCPSNLTSSRPR
B2: recombinant P. vivax plasmepsin V (residues R35-R476), N-terminal fusion tag removed with TEV protease (protein)
chain: GTRSESTEGHSKDLLYKYKLYGDIDEYAYYFLDIDIGTPEQRISLILDTGSSSLSFPCAGCKNCGVHMENPFNLNNSKTSSILYCENEECPFKLNCVKGKCEYMQSYCEGSQISGFYFSDVVSVVSYNNERVTFRKLMGCHMHEESLFLYQQATGVLGMSLSKPQGIPTFVNLLFDNAPQLKQVFTICISENGGELIAGGYDPAYIVRRGGSKSVSGQGSGPVSESLSESGEDPQVALREAEKVVWENVTRKYYYYIKVRGLDMFGTNMMSSSKGLEMLVDSGSTFTHIPEDLYNKLNYFFDILCIQDMNNAYDVNKRLKMTNESFNNPLVQFDDFRKSLKSIIAKENMCVKIVDGVQCWKYLEGLPDLFVTLSNNYKMKWQPHSYLYKKESFWCKGIEKQVNNKPILGLTFFKNRQVIFDIQKNRIGFVDANCPSHPTHTRPR

Target: fluorogenic KAHRP PEXEL peptide DABCYL-…-E-EDANS

Protein	Km	cleavage of the fluorogenic peptide
B1	20.2 µM and 6.0 µM for the P. falciparum and P. vivax enzymes, respectively	demonstrated specific activity against the PEXEL substrates and cleaved the peptides after the P1 Leucine residue as expected
B2	20.2 µM and 6.0 µM for the P. falciparum and P. vivax enzymes, respectively	demonstrated specific activity against the PEXEL substrates and cleaved the peptides after the P1 Leucine residue as expected
